Key:
peptide on HLA-A*02:01 [1] = target: T1, peptide on HLA-A*02:01 (human); test: cytokine release
T1 peptide: ALLEIAPNC

[2] = target: T2, MCPyV T antigen homolog (C9A of …) peptide on HLA-A*02:01 (human); test: cytokine release
T2 peptide: KLLEIAPNA

[3] = target: T3, Merkel cell polyomavirus (MCPyV) T antigen (Large-T antigen) peptide on HLA-A*02:01 (human); test: killing
T3 peptide: KLLEIAPNC

peptide on HLA-A*02:01 [4] = target: T4, peptide on HLA-A*02:01 (human); test: cytokine release
T4 peptide: KLLEIAANC

[5] = target: T5, MCPyV Large-T sequence variant peptide on HLA-A*02:01 (human); test: cytokine release
T5 peptide: KLLEISPNC

peptide on HLA-A*02:01 [6] = target: T6, peptide on HLA-A*02:01 (human); test: cytokine release
T6 peptide: KALEIAPNC

[7] = target: T7, MCPyV Large-T sequence variant peptide on HLA-A*02:01 (human); test: cytokine release
T7 peptide: KLLEITPNC

[8] = target: T3, Merkel cell polyomavirus (MCPyV) T …; test: multimer staining

Measured: binding result

B1: TCR1072 (TCR, V domains shown)
Valpha: RKEVEQDPGPFNVPEGATVAFNCTYSNSASQSFFWYRQDCRKEPKLLMSVYSSGNEDGRFTAQLNRASQYISLLIRDSKLSDSATYLCVVTGTGGFKTIFGAGTRLFVKA
Vbeta: GEEVAQTPKHLVRGEGQKAKLYCAPIKGHSYVFWYQQVLKNEFKFLISFQNENVFDETGMPKERFSAKCLPNSPCSLEIQATKLEDSAVYFCASSSMSIAAGNTGELFFGEGSRLTVL
recognises: peptide on HLA-A*02:01 [1] | [2] | [3]

B2: TCR1007 (TCR, V domains shown)
Valpha: QQQVKQSPQSLIVQKGGISIINCAYENTAFDYFPWYQQFPGKGPALLIAIRPDVSEKKEGRFTISFNKSAKQFSLHIMDSQPGDSATYFCAVPNTGNQFYFGTGTSLTVIP
Vbeta: GAGVSQSPRYKVAKRGQDVALRCDPISGHVSLFWYQQALGQGPEFLTYFQNEAQLDKSGLPSDRFFAERPEGSVSTLKIQRTQQEDSAVYLCASSLIAGLSYEQYFGPGTRLTVT
recognises: peptide on HLA-A*02:01 [4] | [2] | [5] | peptide on HLA-A*02:01 [6] | [7] | [8]
